Data from patent US20130295106A1 (ONCOMED PHARMACEUTICALS, published 2013).

Key:
[1] = biological target: T1, human FZD5 expressed on transfected HEK293 cells (human, UniProt Q13467 27-585); assay: FACS titration (MFI) on HEK293 cells transfected with full-length FZD and GFP
T1 construct: See note of m11
Description: (§1) HEK293 cells were co-transfected with a plasmid DNA expressing full-length FZD1, 2, 5, 7 or 8 along with another plasmid expressing the reporter gene GFP used as a transfection marker. Fugene 6 (Roche) was used as transfection reagent according to the manufacturer directions. Transfected cells were incubated twenty-four to forty-eight hours at 37° C. and 5% CO₂. The anti-FZD mAbs were then diluted in a final volume of 50 μl starting with a concentration of 20 μg/ml and serially diluted 4-fold for a total of 8 dilutions. […] The cells were washed and bound anti-Fzd antibodies were detected with a secondary anti-human antibody conjugated to a fluorescent chromophore. Labeled cells were then detected and counted by FACS. The FACS data generated were expressed in Mean Fluorescence Intensity (MFI) units. GraphPad Prism software was used to graph and analyze the data. MFIs were plotted as a function of Ab concentration to establish dose-response curves. A non-linear regression was applied to the numbers to fit the curve and calculate EC50s.
(§2) The binding profiles for the mAbs 18R5 and 44R24 were determined and compared. 44R24 bound Fzd5 and Fzd8 with good affinity.

[2] = biological target: T2, recombinant FZD2 Fc protein (Biacore) (Homo sapiens (Human), UniProt Q14332 24-250, limits assumed); assay: SPR, Biacore 2000; Fzd Fc immobilized on CM5 chip, IgG 100 to 0.78 nM in solution
T2 construct: also called Fzd Fc; not shown: Fc part, not described
T2 sequence (Q14332 24-250 limits assumed): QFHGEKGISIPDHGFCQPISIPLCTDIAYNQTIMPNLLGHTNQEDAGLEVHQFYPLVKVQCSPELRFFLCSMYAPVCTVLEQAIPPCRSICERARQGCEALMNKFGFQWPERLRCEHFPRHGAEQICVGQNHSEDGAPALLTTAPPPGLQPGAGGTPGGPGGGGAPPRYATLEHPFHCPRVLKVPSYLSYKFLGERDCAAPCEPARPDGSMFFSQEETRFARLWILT
Description: (§3) The KDs of 18R8 and 18R5 antibodies were determined using the Biacore 2000 system from Biacore Lifescience (GE Healthcare). Specifically, purified anti-Fzd7 antibodies were serially diluted in 2-fold increments from 100 to 0.78 nM in HBS-P (0.01 M HEPES pH 7.4, 0.15 M NaCl, 0.005% v/v Surfactant P20). Each dilution was tested against recombinant Fzd Fc proteins immobilized onto a CM5 Biacore chip. The association and dissociation rates were measured and KD values determined using the Biaevaluation software program (Table 5, below).

FZD5-Fc = biological target: T3, FZD5-Fc (Homo sapiens (Human), UniProt Q13467 27-233, limits assumed); assay: as above
T3 construct: also called recombinant FZD5 Fc protein; not shown: Fc part, not described
T3 sequence: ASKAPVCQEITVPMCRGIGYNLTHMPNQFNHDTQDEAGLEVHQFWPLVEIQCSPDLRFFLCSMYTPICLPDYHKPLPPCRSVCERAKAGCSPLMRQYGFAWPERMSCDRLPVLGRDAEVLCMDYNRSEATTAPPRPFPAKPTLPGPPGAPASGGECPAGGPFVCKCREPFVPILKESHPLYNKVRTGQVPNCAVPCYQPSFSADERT
Description: as §3

[3] = biological target: T4, recombinant FZD1 Fc protein (Biacore) (Homo sapiens (Human), UniProt Q9UP38 70-321, limits assumed); assay: as above
T4 construct: also called Fzd Fc; not shown: Fc part, not described
T4 sequence (Q9UP38 70-321 limits assumed): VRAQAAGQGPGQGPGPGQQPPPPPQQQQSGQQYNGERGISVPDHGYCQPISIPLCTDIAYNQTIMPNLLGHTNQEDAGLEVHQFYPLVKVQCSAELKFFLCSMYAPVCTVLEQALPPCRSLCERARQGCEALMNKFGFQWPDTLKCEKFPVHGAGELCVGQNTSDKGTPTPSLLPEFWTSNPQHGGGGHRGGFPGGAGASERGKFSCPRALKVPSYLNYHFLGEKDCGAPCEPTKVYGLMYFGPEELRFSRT
Description: as §3

[4] = biological target: T5, recombinant FZD7 Fc protein (Biacore) (Homo sapiens (Human), UniProt O75084 33-255, limits assumed); assay: as above
T5 construct: also called Fzd Fc; not shown: Fc part, not described
Description: as §3

[5] = biological target: T6, human FZD1 expressed on transfected HEK293 cells (human, UniProt Q9UP38 70-647); assay: FACS titration (MFI) on HEK293 cells transfected with full-length FZD and GFP
T6 sequence (Q9UP38 70-647 limits assumed): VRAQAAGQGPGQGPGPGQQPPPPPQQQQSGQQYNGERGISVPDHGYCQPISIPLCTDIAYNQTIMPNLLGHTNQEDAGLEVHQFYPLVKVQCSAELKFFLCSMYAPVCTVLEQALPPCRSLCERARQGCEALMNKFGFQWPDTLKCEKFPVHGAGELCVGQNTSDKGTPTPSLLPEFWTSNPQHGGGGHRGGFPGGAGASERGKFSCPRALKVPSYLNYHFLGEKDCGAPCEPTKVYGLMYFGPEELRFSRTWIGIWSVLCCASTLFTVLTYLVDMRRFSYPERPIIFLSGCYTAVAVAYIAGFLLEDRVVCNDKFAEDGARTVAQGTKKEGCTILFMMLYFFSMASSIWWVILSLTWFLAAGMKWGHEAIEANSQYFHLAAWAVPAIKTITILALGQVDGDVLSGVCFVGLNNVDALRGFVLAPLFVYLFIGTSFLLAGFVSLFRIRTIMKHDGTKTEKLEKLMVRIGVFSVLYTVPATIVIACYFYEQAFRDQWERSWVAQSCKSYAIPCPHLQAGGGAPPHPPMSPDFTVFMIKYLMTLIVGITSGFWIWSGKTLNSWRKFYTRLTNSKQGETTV
Description: as §1, §2

[6] = biological target: T7, human FZD7 expressed on transfected HEK293 cells (human, UniProt O75084 33-574); assay: as above
T7 construct: See note of m11
Description: as §1, §2

[7] = biological target: T8, human FZD2 expressed on transfected HEK293 cells (human, UniProt Q14332 24-565); assay: as above
T8 construct: See note of m11
T8 sequence (Q14332 24-565 limits assumed): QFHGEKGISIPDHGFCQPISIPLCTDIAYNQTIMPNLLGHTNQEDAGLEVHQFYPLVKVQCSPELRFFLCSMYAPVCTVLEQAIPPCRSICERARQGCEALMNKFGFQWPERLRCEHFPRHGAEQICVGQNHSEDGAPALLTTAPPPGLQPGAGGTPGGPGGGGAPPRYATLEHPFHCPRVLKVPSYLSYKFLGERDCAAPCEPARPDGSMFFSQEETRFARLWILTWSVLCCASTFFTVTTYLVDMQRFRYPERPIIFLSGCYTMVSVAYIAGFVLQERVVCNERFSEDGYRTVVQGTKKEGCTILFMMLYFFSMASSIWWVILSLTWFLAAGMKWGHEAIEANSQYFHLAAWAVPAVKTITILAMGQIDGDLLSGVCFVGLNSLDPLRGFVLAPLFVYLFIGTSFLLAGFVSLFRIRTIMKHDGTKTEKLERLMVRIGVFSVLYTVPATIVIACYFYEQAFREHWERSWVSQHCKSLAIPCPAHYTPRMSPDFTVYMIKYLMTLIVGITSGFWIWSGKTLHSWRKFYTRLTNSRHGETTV
Description: as §1, §2

[8] = biological target: T6, human FZD1 expressed on transfected …; assay: flow cytometry (MFI), antibody titration on HEK293 cells overexpressing the FZD
Description: (§4) To measure antibody binding to FZD by flow cytometry HEK293 cells were co-transfected with FZD expression vectors and the transfection marker GFP. Twenty-four to forty-eight hours post-transfection, cells were collected in suspension and incubated on ice with anti-FZD antibodies (10 μg/ml unless otherwise indicated) or control IgG to detect background antibody binding. The cells were washed and primary antibodies detected with Fc domain-specific secondary antibodies conjugated to a fluorescent chromophore (e.g. phycoerythrin conjugated anti-human IgG). Labeled cells were then analyzed by flow cytometry to identify anti-FZD antibodies that specifically recognize cell surface expression of FZD protein. Monoclonal antibodies 18R5 and 18R8 recognized FZD on transfected cells. As shown in FIG. 1 and FIG. 2, both 18R8 and 18R5 bind to multiple FZD including FZD1, FZD2, FZD5, FZD7, and FZD8. To examine the relative ability of 18R8 and 18R5 to bind to each FZD protein, titration analysis was conducted wherein the amount of antibody in the binding reaction was varied (FIG. 2).

[9] = biological target: T8, human FZD2 expressed on transfected …; assay: as above
Description: as §4

[10] = biological target: T9, FZD8-Fc variant Mut2 (substitution at position 75 in the cleft) (human, UniProt Q9H461 28-157); assay: phage ELISA on FZD8-Fc Mut2
T9 construct: also called FZD8-Mut2; not shown: human IgG1 Fc
T9 chain: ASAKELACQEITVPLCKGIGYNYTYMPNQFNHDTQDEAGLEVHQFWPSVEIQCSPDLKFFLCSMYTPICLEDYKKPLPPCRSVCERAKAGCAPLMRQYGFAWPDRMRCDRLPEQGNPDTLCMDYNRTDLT

[11] = biological target: T10, soluble FZD8-Fc containing the Fri domain (amino acids 1-157 of FZD8 linked in-frame to human IgG1 Fc) (human, UniProt Q9H461 28-157); assay: phage ELISA on FZD8-Fc
T10 construct: also called wild-type FZD8; not shown: human IgG1 Fc
T10 sequence: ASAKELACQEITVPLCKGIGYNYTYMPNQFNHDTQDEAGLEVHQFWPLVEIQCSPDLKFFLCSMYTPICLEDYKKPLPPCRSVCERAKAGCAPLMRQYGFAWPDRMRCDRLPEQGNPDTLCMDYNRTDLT

B1: 44R24 anti-FZD IgG antibody (antibody, V domains shown)
VH: EVQLVESGGGLVQPGGSLRLSCAASGFTFSSYYITWVRQAPGKGLEWVSTISYSSSNTYYADSVKGRFTISRDNSKNTLYLQMNSLRAEDTAVYYCARSIVFDYWGQGTLVTVSS
VL: DIELTQPPSVSVAPGQTARISCSGDALGNRYVYWYQQKPGQAPVLVIPSGIPERFSGSNSGNTATLTISGTQAEDEADYYCGSWDTRPYPKYVFGGGTKLTVLG
notes: also called anti-FZD5/8 44R24
EC50 [1]: 1.89 nM

B2: 18R5 IgG antibody (human IgG2, lambda) (antibody, V domains shown)
VH: EVQLVESGGGLVQPGGSLRLSCAASGFTFSHYTLSWVRQAPGKGLEWVSVISGDGSYTYYADSVKGRFTISSDNSKNTLYLQMNSLRAEDTAVYYCARNFIKYVFANWGQGTLVTVSS
VL: DIELTQPPSVSVAPGQTARISCSGDNIGSFYVHWYQQKPGQAPVLVIYDKSNRPSGIPERFSGSNSGNTATLTISGTQAEDEADYYCQSYANTLSLVFGGGTKLTVLG
notes: also called OMP-18R5; 18R5 IgG2 antibody
Kd [2]: 3.3 nM
Kd (FZD5-Fc): 1.9 nM
Kd [3]: 4.6 nM
Kd [4]: 1.8 nM
EC50 [5]: 0.41 nM
EC50 [6]: 0.58 nM
EC50 [1]: 1.1 nM
EC50 [7]: 0.62 nM
EC50 (read off the curve) [8]: ~0.2 µg/mL
EC50 (read off the curve) [9]: ~0.2 µg/mL

DVWWLGSTWLKR (marked with an arrow) [clone 28]
binding result [10]: no binding

B3: FZD binding peptide clone #2 (DTLSALIERGLM) (peptide)
peptide: DTLSALIERGLM
notes: Linear 12-mer from the Ph.D. phage display peptide library
binding result [10]: no binding
binding result [11]: binds
